Here are results for 29 sequences from the supplement of paper PMC9170038.

The data set relates to MS2 coat protein. Kind of data set: apparent KD of MS2 coat protein; designed switch direction (-1 OFF switch, 1 ON switch): -1; higher = weaker reporter binding. In outline:
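Designed RNA switches with common flanks were made on Illumina chips by stalled E. coli RNA polymerase. Titration with SNAP-549-labelled MS2 coat protein doubled from 0.7 or 1.5 nM up to 3 µM. Apparent KD is each design's median over clusters after curve-fitting normalised fluorescence.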

[1] abbreviates: Eterna round: R95, input ligand: FMN 200 uM.
The mark [2] stands for this setting: Eterna round: R95, input ligand: microRNA oligo, concentration not stated.
Setting [3] is: Eterna round: R95, input ligand: none.
Where [4] appears, read: input ligand: microRNA oligo, concentration not stated.

In the case of “UGUAUUAUAGGAUAUCACAACCUGGACAUGAGGAUCACCCAUGUGGUUGCAUGCUGUCGAUGAGAAGGAUAGGGCG [Eternabot (L1) Solution 43] (Eterna round: R97, puzzle: Exclusion 5)”, the “apparent KD of MS2 coat protein” value is, setting by setting: (input ligand: FMN 200 uM) 0.0228 µM; (input ligand: none) 0.0219 µM.
The like results for “UGUCUGUCAGGAUAUUCGAGUUCGAGUGAAAGCUUGAGCUUGAAGAAGGGACAUGAGGAUCACCCAUGUGGACG [-28.5, -27.4 kcal, A 27%, 1bis-(ca)1] (Eterna round: R97, puzzle: Exclusion 4)” were, in that order, 0.0878 µM and 0.0501 µM.
In the case of “UGUGAGCUAGGAUAUGCUUUGGGCUCGCUUUCCUUCGAUAAACUUGAGGAUCACCCAAGUAGAAGGAGCUUGCA [Mod 31 - Jieux - Exclusion 2] (Eterna round: R97, puzzle: Exclusion 2)”, the “apparent KD of MS2 coat protein” value by setting is: (input ligand: FMN 200 uM) 0.0396 µM; (input ligand: none) 0.0204 µM.
On the same counts, the results for “UGUGUGUGAGGAUAUACAAUGCGCGCGCGAAAGUGUGUGUUACAUGAGGAUCACCCAUGUAGAAGGCGCGCGCG [-31, -27.8 kcal A 24%, 6,6bis] (Eterna round: R97, puzzle: Exclusion 2)” are 0.0157 µM and 0.017 µM.
“UGUUGGCGAGGAUAUACAUGAGGAUCACCCAUGUGAGAGAAAAAAGUGAGGAAGAAAAGUAGAAGGCGCUGACA [salish99_ex3_r3_045] (puzzle: Exclusion 3)”: the “apparent KD of MS2 coat protein” value runs as follows: under setting [1], 0.371 µM; under setting [2], 0.0425 µM; under setting [3], 0.0484 µM.
On to “UGUUGUCGCGCAGGAUAUGUAUGAGGAUCACCCAUAAGAGUAUAUUUACCAUGAGGAUCACCCAUGUAGAAGGGCGGGACAACA [pwkr exNG2 2xF5 1xFMN.11] (Eterna round: R96, puzzle: Exclusion NG 2)”, for which the “apparent KD of MS2 coat protein” value is, setting by setting: (input ligand: FMN 200 uM) 0.105 µM; under setting [4], 0.0466 µM; (input ligand: none) 0.0736 µM.
As to “UGUUGUCGCGUAGGAUAUUGUCAACAGGCAAUAGGAUAUGCGAAAGCAGAAGGAUCGCCAACAGGCGAGAAGGACGGGACAACU [pwkr exNG2 2xF7 2xFMN.5] (Eterna round: R96, puzzle: Exclusion NG 2)”, the “apparent KD of MS2 coat protein” value turned out to be 0.142 µM (input ligand: FMN 200 uM), 0.913 µM under setting [4] and 1.14 µM (input ligand: none).
The like results for “UGUUGUUACGCAGGAUAUGAGGAUCACCCAUAGAAGGAUAUCGAAAGAGAAGGUCUGAGGAUUACCCAGAAGGGCGGGUUAACA [pwkr exNG2 2xF5 2xFMN.1] (Eterna round: R96, puzzle: Exclusion NG 2)” were, in that order, 0.714 µM, 0.153 µM and 0.139 µM.
The like results for “UGUUGUUACGCAGGAUAUGAGGAUCACCCAUAUAAGGAUAUCGAAAGAGAAGGUCUGAGGAUUACCCAGAAGGGCGGGUUAACA [pwkr exNG2 2xF5 2xFMN.29] (Eterna round: R96, puzzle: Exclusion NG 2)” were, in that order, 0.227 µM, 0.0653 µM and 0.115 µM.
The like results for “UGUUGUUACGCAGGAUAUGCAUGAGGAUCACCCAUGCAACCACAUUUAACAUGAGGAUCACCCAUGUAGAAGGGCGGGUUAACA [pwkr exNG2 2xF5 1xFMN.1] (Eterna round: R96, puzzle: Exclusion NG 2)” were, in that order, 0.0775 µM, 0.0204 µM and 0.028 µM.
Regarding “UGUUGUUCAGGAUAUGAAGUAUAUUACAUGAGGAUCACCCAUGUAGAUCCUGAAUAUACAUCAGAAGGGAAUAUUU [JR_Ex5_Sub057] (Eterna round: R97, puzzle: Exclusion 5)”, the “apparent KD of MS2 coat protein” value was 0.051 µM (input ligand: FMN 200 uM) and 0.0211 µM (input ligand: none).
For “UGUUUAUAUGAAGGAUAUACUUAACAUGAGGAUCACCCAUGUGGUGUUGUGAGUGAGUGAGUUUAGUAGAAGGUCAAUGAUUUU [JMF's solution 75] (Eterna round: R96, puzzle: Exclusion NG 2)”, the “apparent KD of MS2 coat protein” value reads like this: (input ligand: FMN 200 uM) 1.03 µM; under setting [4], 0.2 µM; (input ligand: none) 0.333 µM.
The like results for “UUAAAUCAUGUAGGAUAUGCGUAGCGAAGCUAUGCAGAAGGACAUGAGGAUCACCCAUGUGCUUGCGUCCGCGUACGGAUGCUA [Mat - Exclusion NG 1 - Mod of JL - D66] (Eterna round: R96, puzzle: Exclusion NG 1)” were, in that order, 0.202 µM, 0.107 µM and 0.134 µM.
On the same counts, the results for “UUAAAUCAUGUAGGAUAUGCGUGGCGAAGCUAUGCAGAAGGACAUGAGGAUCACCCAUGUUCUUCGGUCUGCGUACAGAUCGAA [JL ENG1 1.07] (Eterna round: R96, puzzle: Exclusion NG 1)” are 0.316 µM, 0.0206 µM and 0.0268 µM.
In the case of “UUAACAUGCUGGUGAUCAUACAUGAGGAUCACCCAUGUAACAAGCUUUUUGUUCGUCUUAUAAUUUAAGAUCACCAG [Stov1/7-B1] (Eterna round: R97, puzzle: Sensor, turn-off variant 1)”, the “apparent KD of MS2 coat protein” value by setting is: (input ligand: FMN 200 uM) 0.0216 µM; (input ligand: none) 0.0203 µM.
For the sequence “UUAAUGUGAGGAUAUCAGGUGUGCUAGCGUACUGGUACAUCUGAGAAGGCACAUGAGGAUCACCCAUGUUUCUU [JL-ex4-3.23 Brourd mod] (puzzle: Exclusion 4)”, under setting [2], the “apparent KD of MS2 coat protein” value was determined as 0.0267 µM.
With “UUAAUUAAUGUAGGAUAUGCAAGGCGAACCUAAGCAGAAGGACAUGUGGAUCACCCAUGUAAUGCGGUCUGCGUACAGAUCGCU [salish99_ex1_NG1_001] (Eterna round: R96, puzzle: Exclusion NG 1)”, the “apparent KD of MS2 coat protein” value runs as follows: (input ligand: FMN 200 uM) 0.271 µM; under setting [4], 1.17 µM; (input ligand: none) 1.27 µM.
On the same counts, the results for “UUAAUUAAUUGCGCAAGAUCACAUGAGGAUCACCCAUGUAUAUAGGAUAUCAGCUCGAUUAGAGCUGAGAAGGAUAUACAGCGC [ExNG3/3-A1] (Eterna round: R96, puzzle: Exclusion NG 3)” are 0.711 µM, 0.192 µM and 0.313 µM.
On the same counts, the results for “UUAAUUAAUUUAUUAGAUCCUCACAUGAGGAUCACCCAUGUGCAGGAUAUCAGCUCGUUUAGAGCUGAGAAGGGCACUAUAAAU [ExNG3/10-B2] (Eterna round: R96, puzzle: Exclusion NG 3)” are 0.0246 µM, 0.0418 µM and 0.0381 µM.
As to “UUAGAAUUGUUAGGAUAUUAAUUAUUUUUUAGUAUGAUCUACAUGAGGAUCACCCAUGUUAAAUAUAAGAAGGAACGUUAUAUU [JR_ExcNG2_Sub096] (Eterna round: R96, puzzle: Exclusion NG 2)”, under setting [4], the “apparent KD of MS2 coat protein” value was found to be 0.0499 µM.
Take “UUAGCGUAUGUAAGGAUAUGCUGGUCUAAUGAUCAGCAGAAGGUACAUGAGGAUCACCCAUGUGGAUUCGUUAU [Mod of JL 8 - Jieux - Brourd's mod of Exclusion 4] (Eterna round: R97, puzzle: Brourd's mod of Exclusion 4)”: the “apparent KD of MS2 coat protein” value stood at 0.327 µM (input ligand: FMN 200 uM) and 0.03 µM (input ligand: none).
Turning to “UUAGGCUCUGGUUCGUAUUACAUGAGGAUCACCCAUGUGGCCAAGUGAGUUGGGCCGGUCAUGAUUUUGCUCGUUAU [Eternabot (L2) Solution 13] (Eterna round: R97, puzzle: Sensor, turn-off variant 1)”, the “apparent KD of MS2 coat protein” value runs as follows: (input ligand: FMN 200 uM) 0.0483 µM; (input ligand: none) 0.0594 µM.
Take “UUAGUAUAGCAAGGAUAUGUUUAUGUAUAGUUGCCUCUUACAUGAGGAUCACCCAUGUUUAACUUACAGAAGGUGCAAUGAUUU [JR_ExcNG2_Sub033] (Eterna round: R96, puzzle: Exclusion NG 2)”: the “apparent KD of MS2 coat protein” value by setting is: (input ligand: FMN 200 uM) 0.279 µM; under setting [4], 0.108 µM; (input ligand: none) 0.137 µM.
Take “UUAGUGUGAGGAUAUGGUAAAGAUAAGAUGAUGAAAGAACUCCAGAAGGCACAUGAGGAUCACCCAUGUAGAUU [Mat - Exclusion 4 - Mod of JL - D25] (puzzle: Exclusion 4)”: the “apparent KD of MS2 coat protein” value under setting [1] is 0.0535 µM, the “apparent KD of MS2 coat protein” value under setting [2] was 0.0242 µM and the “apparent KD of MS2 coat protein” value under setting [3] turned out to be 0.0242 µM.
As to “UUAUAACAUGUAGGAUAUGCGUGGCGAAGCUAUGCAGAAGGACAUGAGGAUCACCCAUGUUCCUGCGUCCGCGUACGGAUGCAA [JL Eng1 1.21 mod 1] (Eterna round: R96, puzzle: Exclusion NG 1)”, the “apparent KD of MS2 coat protein” value (input ligand: FMN 200 uM) turned out to be 0.0341 µM, the “apparent KD of MS2 coat protein” value under setting [4] came to 0.0141 µM and the “apparent KD of MS2 coat protein” value (input ligand: none) amounted to 0.0143 µM.
As to “UUAUAUAAUGUGAGGAUAUGCUGGUCCUUGGAUCAGCAGAAGGCACAUGAGGAUCACCCAUGUAGUAAAUUUUA [JL bmx4 3.02] (puzzle: Brourd's mod of Exclusion 4)”, under setting [2], the “apparent KD of MS2 coat protein” value was 0.0179 µM.
“UUAUUAUAUGUAGGAUAUGCAUAUUAUUAUUAUGCAGAAGGACAUGAGGAUCACCCAUGUAUAUUGUUGUUGUAUAUUAUAUAU [Title] (Eterna round: R96, puzzle: Exclusion NG 1)”: the “apparent KD of MS2 coat protein” value under setting [4] amounted to 0.0209 µM.
Consider “UUAUUAUAUGUAGGAUAUGCGUAUUAUUGUUAUGCAGAAGGACAUGAGGAUCACCCAUGUAUAUUAUUGUUAUAUAUUAUAUAU [Title] (Eterna round: R96, puzzle: Exclusion NG 1)”, for which the “apparent KD of MS2 coat protein” value (input ligand: FMN 200 uM) came to 0.0502 µM, the “apparent KD of MS2 coat protein” value under setting [4] came out at 0.0193 µM and the “apparent KD of MS2 coat protein” value (input ligand: none) is 0.0293 µM.
On to “UUAUUUAGUGUGAGGAUAUGCUGGUCCAUAGAUCAGCAGAAGGCACAUGAGGAUCACCCAUGUAAUAUAUUAAU [Mat - Exclusion 4 - JL Mod - D32] (puzzle: Brourd's mod of Exclusion 4)”, for which the “apparent KD of MS2 coat protein” value under setting [2] was 0.0252 µM.
